In the experiment the target is bovine insulin (bovine, UniProt P01317 85-105; P01317 25-54). Put plainly: ITC.

This note sets out measurements from article PMC9052121 (RSC Advances, 2020).

Where no end group is shown, it is not given here.

Chain of bovine insulin (P01317 85-105, chain 1 of 2): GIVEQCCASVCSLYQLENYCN
Chain of bovine insulin (P01317 25-54, chain 2 of 2): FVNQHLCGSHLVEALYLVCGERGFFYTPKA

Regarding Ac-DITTRYNGKVWWR (designed binder) [B2T_TT (N-DITTRYNGKVWWR-C), de novo designed 13-mer beta-hairpin peptide], the “stoichiometry N” value is 4 peptides per insulin.
With Ac-KVYYRYNGKVWWR (designed binder) [B2T_KV (N-KVYY-RYNGKVWWR-C), de novo designed 13-mer beta-hairpin peptide], the binding result is on record as “binds”.
On to Ac-DIFFRYNGKVWWR (designed binder) [B2T_FF (N-DIFF-RYNGKVWWR-C), de novo designed 13-mer beta-hairpin peptide], for which the binding result is reported as “binds”.
